Measurements taken from PMC4718636, “Recombinant hTRBP and hPACT Modulate hAgo2-Catalyzed siRNA-Mediated Target RNA Cleavage In Vitro” (PLoS ONE, 2016).

Target: T1, GST-hAgo2 (human Argonaute2) (human, UniProt Q9UKV8 1-859)
T1 construct: human Argonaute2 (hAgo2); In the cleavage assays hAgo2 stood with siRNA (hAgo2/siRNA complex); also called wt-hAgo2; hArgonaute2; source: expressed and purified as previously described [27]
Assay: pull-down; pulldown assays shown only in Figure I of the S1 Supporting Information File; format not given
Settings: both partners purified

T1 sequence (Q9UKV8 whole entry): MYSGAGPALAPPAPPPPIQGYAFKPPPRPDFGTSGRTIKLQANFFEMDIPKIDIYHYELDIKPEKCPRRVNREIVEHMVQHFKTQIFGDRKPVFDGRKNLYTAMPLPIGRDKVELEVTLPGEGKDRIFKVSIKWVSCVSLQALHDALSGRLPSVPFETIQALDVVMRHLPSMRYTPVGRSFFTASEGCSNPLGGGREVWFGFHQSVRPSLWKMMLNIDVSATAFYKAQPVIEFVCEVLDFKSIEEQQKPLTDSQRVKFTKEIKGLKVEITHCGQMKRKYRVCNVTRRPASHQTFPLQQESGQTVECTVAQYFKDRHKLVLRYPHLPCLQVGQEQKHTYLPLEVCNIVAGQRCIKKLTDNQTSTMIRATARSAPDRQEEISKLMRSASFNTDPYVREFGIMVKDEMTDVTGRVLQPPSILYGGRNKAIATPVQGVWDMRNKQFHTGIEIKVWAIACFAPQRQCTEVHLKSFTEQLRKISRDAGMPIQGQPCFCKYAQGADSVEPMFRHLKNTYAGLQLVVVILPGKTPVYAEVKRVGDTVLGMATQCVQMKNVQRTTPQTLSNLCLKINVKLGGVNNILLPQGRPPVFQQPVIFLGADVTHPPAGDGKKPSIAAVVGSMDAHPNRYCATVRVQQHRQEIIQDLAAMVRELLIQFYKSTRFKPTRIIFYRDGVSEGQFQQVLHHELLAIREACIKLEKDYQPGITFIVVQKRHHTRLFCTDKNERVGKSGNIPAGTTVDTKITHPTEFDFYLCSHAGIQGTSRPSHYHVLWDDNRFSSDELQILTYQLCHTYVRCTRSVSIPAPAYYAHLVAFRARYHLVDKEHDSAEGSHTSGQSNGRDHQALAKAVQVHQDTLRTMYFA

- binding result: binds
B1: His-hPACT (human protein activator of protein kinase R), purified under native conditions (natural protein, UniProt O75569 1-313, looked up)
chain: MSQSRHRAEAPPLEREDSGTFSLGKMITAKPGKTPIQVLHEYGMKTKNIPVYECERSDVQIHVPTFTFRVTVGDITCTGEGTSKKLAKHRAAEAAINILKANASICFAVPDPLMPDPSKQPKNQLNPIGSLQELAIHHGWRLPEYTLSQEGGPAHKREYTTICRLESFMETGKGASKKQAKRNAAEKFLAKFSNISPENHISLTNVVGHSLGCTWHSLRNSPGEKINLLKRSLLSIPNTDYIQLLSEIAKEQGFNITYLDIDELSANGQYQCLAELSTSPITVCHGSGISCGNAQSDAAHNALQYLKIIAERK
notes: No removal of the His tag is described; also called hPACT^nat; source: E. coli BL21 (DE3), purified under native conditions (Talon Superflow)
